{"source": "patent US20090162366A1", "about": "(KIRIN PHARMA, published 2009)", "binders": {"B1": {"name": "C40 (antibody, V domains shown)", "VH": "QLQLQESGPGLVKPSETLSLTCTVSGGSISSSFYYCGWIRQPPGKGLEWIGSIYYRGSTYYNPSLKSRVTISVDTSKNQFSLKLSSVTAADTAVYYCARRVTMVRGVKGDYFDYWGQGTLVTVSS", "VL": "DIQMTQSPSSLSASVGDRVTITCRASQGISSWLAWYQQKPEKVPKSLIYAASSLQSGVPSRFSGSGSGTDFTLTISSLQPEDFATYYCQQYNYYPLTFGGGTKVEIKR"}, "B2": {"name": "C40G1 (antibody, V domains shown)", "VH": "B1 VH", "VL": "B1 VL"}, "B3": {"name": "N547 (antibody, V domains shown)", "VH": "not shown", "VL": "QSVLTQPPSMSAAPGQKVTISCSGSSSNIGNNYISWYQQLPGTAPKVLIYDNNKRPSGIPDRFSGSKSGTSATLGITGLQTGDEADYYCGSWDSSLSAGVFGTGTKVTVLG"}, "B4": {"name": "L66 (antibody, V domains shown)", "VH": "EVQLVESGGGVVRPGGSLRLSCAASGFTFDDYGMSWVRQAPGKGLEWVSGINWNGGSTGYADSVKGRFTISRDNAKNSLYLQMNSLRAEDTALYYCARDRVTMVRGVIMDYYGMDVWGQGTTVTVSS", "VL": "QTVVTQEPSLTVSPRGTVTLTCSSSTGAVTSGYYPGWFQLKPGQAPMSLIYSARKKHSWTPARFSGSLLGGKAALTLSGVQPEDEAEYYCLLYYGGAYVFGTGTKVTVLG"}}}
{"molecular_target": "T1, OVA (UniProt P01012 2-386)", "T1 sequence": "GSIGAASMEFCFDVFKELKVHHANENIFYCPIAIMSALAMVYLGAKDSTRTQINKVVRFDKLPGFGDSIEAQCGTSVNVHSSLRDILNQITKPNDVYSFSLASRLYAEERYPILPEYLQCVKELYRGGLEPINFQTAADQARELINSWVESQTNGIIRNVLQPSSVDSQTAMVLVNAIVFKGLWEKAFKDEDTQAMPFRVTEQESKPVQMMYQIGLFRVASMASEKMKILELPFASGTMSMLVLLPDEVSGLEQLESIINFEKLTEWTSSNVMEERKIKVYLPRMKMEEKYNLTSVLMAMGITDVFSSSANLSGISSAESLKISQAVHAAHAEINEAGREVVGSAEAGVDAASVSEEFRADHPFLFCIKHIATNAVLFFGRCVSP", "experiment": "ELISA"}
{"binder": "B1", "binding result": "no binding (tested: below 0.1 at OD450nm)"}
{"binder": "B2", "binding result": "no binding (tested: below 0.1 at OD450nm)"}
{"binder": "B3", "binding result": "no binding (tested: below 0.1 at OD450nm)"}
{"binder": "B4", "binding result": "no binding (tested: below 0.1 at OD450nm)"}
{"molecular_target": "BSA (UniProt P02769 25-607)", "sequence (P02769 25-607 limits assumed)": "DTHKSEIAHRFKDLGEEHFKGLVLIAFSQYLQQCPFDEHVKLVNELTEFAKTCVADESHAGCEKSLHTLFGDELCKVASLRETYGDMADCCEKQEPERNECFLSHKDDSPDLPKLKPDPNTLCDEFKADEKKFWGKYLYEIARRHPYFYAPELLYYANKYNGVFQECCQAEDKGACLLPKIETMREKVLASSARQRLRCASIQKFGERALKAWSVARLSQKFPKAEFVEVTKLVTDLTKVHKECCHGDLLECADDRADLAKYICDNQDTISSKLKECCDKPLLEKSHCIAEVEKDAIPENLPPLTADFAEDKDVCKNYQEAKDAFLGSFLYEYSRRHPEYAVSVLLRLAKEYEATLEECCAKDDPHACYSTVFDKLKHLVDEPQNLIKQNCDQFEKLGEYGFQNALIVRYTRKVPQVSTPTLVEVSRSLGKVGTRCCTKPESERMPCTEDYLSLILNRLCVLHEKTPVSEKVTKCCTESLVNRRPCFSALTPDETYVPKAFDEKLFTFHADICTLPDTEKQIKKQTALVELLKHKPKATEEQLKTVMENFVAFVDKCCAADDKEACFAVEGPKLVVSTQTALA", "experiment": "ELISA"}
{"binder": "B1", "binding result": "no binding (tested: below 0.1 at OD450nm)"}
{"binder": "B2", "binding result": "no binding (tested: below 0.1 at OD450nm)"}
{"binder": "B3", "binding result": "no binding (tested: below 0.1 at OD450nm)"}
{"binder": "B4", "binding result": "no binding (tested: below 0.1 at OD450nm)"}
